Experimental data taken from patent publication US20250059292A1 (JCR PHARMACEUTICALS, published 2025).

Legend:
[1] = biological target: T1, mouse transferrin receptor extracellular domain (position 87 to position 763 of SEQ ID NO: 39) (mouse, UniProt Q62351 87-763); test: ELISA: mouse TfR extracellular domain coated on the plate, detected with anti-hI2S monoclonal antibody and HRP-labeled secondary antibody
T1 construct: Coated on the ELISA plate at 10 ug/mL; also called mouse TfR; mTfR
Experimental: The binding activities of the obtained three types of proteins, mscFv-GS3-hI2S, mscFv2-GS3-hI2S, and hI2S-mscFv2, to the mouse TfR receptor were measured by the ELISA method. The ELISA method was generally performed in the following manner. To each well of a 96-well microtiter plate (Nunc), 100 μL of a mouse transferrin receptor extracellular domain having an amino acid sequence from position 87 to position 763 of an amino acid sequence represented by SEQ ID NO: 39 diluted with 0.05 M bicarbonate buffer (pH 9.6) to a concentration of 10 μg/mL was added, and the plate was allowed to stand at room temperature for at least 1 hour to adsorb the antibody to the plate. Then, 300 μL of TBS containing 1% BSA and 0.05% Tween20 was added to each well, and the plate was allowed to stand at room temperature for 1 hour. Each well was washed three times with TBS containing 0.05% Tween20 (TBS-T), followed by dilution with TBS containing 0.1% BSA and 0.05% Tween20 to 300, 100, 33.33, 11.11, 3.70, 1.23, 0.41, or 0.14 nM for mscFv-GS3-hI2S, 600, 200, 66.67, 22.22, 7.41, 2.47, 0.82, or 0.27 nM for mscFv2-GS3-hI2S, and 1200, 400, 133.33, 44.44, 14.81, 4.94, 1.65, or 0.55 nM for hI2S-mscFv2, and 100 μL of each thereof was added to each well. The plate was allowed to stand at room temperature for at least 1 hour. After the plate was washed three times with TBS-T, anti-hI2S monoclonal antibodies were diluted to 0.5 μg/mL with TBS containing 0.1% BSA and 0.05% Tween20, 100 μL thereof was added to each well, and the plate was allowed to stand at room temperature for at least 1 hour. The plate was washed three times with the TBS-T, then 100 μL of an HRP-labeled anti-human IgG polyclonal antibody (Bethyl) solution diluted to 50 ng/mL with TBS containing 0.1% BSA and 0.05% Tween20 was added to each well, and the plate was allowed to stand at room temperature for at least 1 hour. […] Then, 100 μL of a stop solution (1 N hydrochloride) was added to each well, and the absorbance at 450 nm for each well was measured using a plate reader (SpectraMax iD3, MOLECULAR DEVICES).

[2] = biological target: T1, mouse transferrin receptor …; test: ELISA: mouse TfR extracellular domain coated on the plate, detected with anti-I2S monoclonal antibody and HRP-labeled secondary antibody
Experimental: The recombinant proteins of mscFv3-GS3-hI2S obtained by an ordinary method using CHO cells were measured for their binding activity to mouse transferrin receptor by the ELISA method. The ELISA method was generally performed in the following manner. To each well of a 96-well microtiter plate (Nunc), 100 μL of a mouse transferrin receptor extracellular domain having an amino acid sequence from position 87 to position 763 of an amino acid sequence represented by SEQ ID NO: 39 diluted with 0.05 M bicarbonate buffer (pH 9.6) to a concentration of 10 μg/mL was added, and the plate was allowed to stand at room temperature for at least 1 hour to adsorb the antibody to the plate. Then, 300 μL of TBS containing 1% BSA and 0.05% Tween20 was added to each well, and the plate was allowed to stand at room temperature for 1 hour. Each well was washed three times with TBS containing 0.05% Tween20 (TBS-T). Then, a solution containing mscFv3-GS3-hI2S was diluted using TBS containing 0.1% BSA and 0.05% Tween20 to a concentration of mscFv3-GS3-hI2S of 200, 66.7, 22.2, 7.41, 2.47, 0.82, and 0.27 nM, and 100 μL of the diluted solution was added to each well. The plate was allowed to stand at room temperature for at least 1 hour. […] Then, 100 μL of a stop solution (1 N hydrochloride) was added to each well, and the absorbance at 450 nm for each well was measured using a plate reader (MOLECULAR DEVICES).

T1 sequence (Q62351 87-763): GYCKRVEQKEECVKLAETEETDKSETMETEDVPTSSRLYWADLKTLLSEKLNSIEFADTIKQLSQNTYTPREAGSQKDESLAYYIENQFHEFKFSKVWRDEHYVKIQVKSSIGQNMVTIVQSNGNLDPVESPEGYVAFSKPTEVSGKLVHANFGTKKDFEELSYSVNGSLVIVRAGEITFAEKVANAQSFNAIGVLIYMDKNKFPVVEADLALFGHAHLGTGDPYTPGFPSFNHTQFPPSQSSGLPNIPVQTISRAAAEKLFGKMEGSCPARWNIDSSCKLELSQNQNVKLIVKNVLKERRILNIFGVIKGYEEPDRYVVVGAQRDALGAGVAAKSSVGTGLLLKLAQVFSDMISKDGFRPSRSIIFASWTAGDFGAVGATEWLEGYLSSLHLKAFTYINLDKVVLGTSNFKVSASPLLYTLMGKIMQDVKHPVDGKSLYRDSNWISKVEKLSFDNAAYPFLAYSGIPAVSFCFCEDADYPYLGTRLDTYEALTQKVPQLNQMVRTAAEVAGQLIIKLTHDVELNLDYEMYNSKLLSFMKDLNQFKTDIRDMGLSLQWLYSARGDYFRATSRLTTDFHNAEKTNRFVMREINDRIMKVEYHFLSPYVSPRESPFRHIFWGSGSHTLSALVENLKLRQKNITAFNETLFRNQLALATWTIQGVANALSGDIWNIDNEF

EC50 [1]	EC50 [2]	Binder
96.7 nM	–	hI2S-mscFv2 (conjugate in which mouse anti-mTfRscFv antibody 2 is bound to the C-terminus of hI2S) (scFv, Enzyme-scFv fusion, recombinant from CHO cells) SETQANSTTDALNVLLIIVDDLRPSLGCYGDKLVRSPNIDQLASHSLLFQNAFAQQAVCAPSRVSFLTGRRPDTTRLYDFNSYWRVHAGNFSTIPQYFKENGYVTMSVGKVFHPGISSNHTDDSPYSWSFPPYHPSSEKYENTKTCRGPDGELHANLLCPVDVLDVPEGTLPDKQSTEQAIQLLEKMKTSASPFFLAVGYHKPHIPFRYPKEFQKLYPLENITLAPDPEVPDGLPPVAYNPWMDIRQREDVQALNISVPYGPIPVDFQRKIRQSYFASVSYLDTQVGRLLSALDDLQLANSTIIAFTSDHGWALGEHGEWAKYSNFDVATHVPLIFYVPGRTASLPEAGEKLFPYLDPFDSASQLMEPGRQSMDLVELVSLFPTLAGLAGLQVPPRCPVPSFHVELCREGKNLLKHFRFRDLEEDPYLPGNPRELIAYSQYPRPSDIPQWNSDKPSLKDIKIMGYSIRTIDYRYTVWVGFNPDEFLANFSDIHAGELYFVDSDPLQDHNMYNDSQGGDLFQLLMPEVQLVESGGGLVQPGNSLTLSCVASGFTFSNYGMHWIRQAPKKGLEWIAMIAYDSSKMNYADTVKGRFTISRDNSKNTLYLEMNSLRSEDTAMYYCAVPTAHYVVDVWGQGVSVTVSSGGGGSGGGGSGGGGSDIQMTQSPASLSASLEEIVTITCQASQDIGNWLAWYQQKPGKSPQLLIAGATSLADGVPSRFSGSRSGTQFSLKISRVQVEDIGIYYCLQAANTPWTFGGGTKLELKR
–	4.4 nM	mscFv3-GS3-hI2S (conjugate in which hI2S is bound to the C-terminus of mouse anti-mouse transferrin receptor single chain antibody mscFv 3 via the linker of … (scFv, scFv-enzyme fusion, recombinant from CHO cells; also called mscFv 3-hI2S conjugate) EVQLVESGGGLVQPGNSLTLSCVASGFTFSNYGMHWIRQAPKKGLEWIAMIAYDSSKMNYADTVKGRFTISRDNSKNTLYLEMNSLRSEDTAMYYCAVPTAHYVVDVWGQGVSVTVSSGGGGSGGGGSGGGGSDIQMTQSPASLSASLEEIVTITCQASQDIGNWLAWYQQKPGKSPQLLIYGATSLADGVPSRFSGSRSGTQFSLKISRVQVEDIGIYYCLQAYNTPWTFGGGTKLELKRGGGGSGGGGSGGGGSSETQANSTTDALNVLLIIVDDLRPSLGCYGDKLVRSPNIDQLASHSLLFQNAFAQQAVCAPSRVSFLTGRRPDTTRLYDFNSYWRVHAGNFSTIPQYFKENGYVTMSVGKVFHPGISSNHTDDSPYSWSFPPYHPSSEKYENTKTCRGPDGELHANLLCPVDVLDVPEGTLPDKQSTEQAIQLLEKMKTSASPFFLAVGYHKPHIPFRYPKEFQKLYPLENITLAPDPEVPDGLPPVAYNPWMDIRQREDVQALNISVPYGPIPVDFQRKIRQSYFASVSYLDTQVGRLLSALDDLQLANSTIIAFTSDHGWALGEHGEWAKYSNFDVATHVPLIFYVPGRTASLPEAGEKLFPYLDPFDSASQLMEPGRQSMDLVELVSLFPTLAGLAGLQVPPRCPVPSFHVELCREGKNLLKHFRFRDLEEDPYLPGNPRELIAYSQYPRPSDIPQWNSDKPSLKDIKIMGYSIRTIDYRYTVWVGFNPDEFLANFSDIHAGELYFVDSDPLQDHNMYNDSQGGDLFQLLMP
13.2 nM	–	mscFv2-GS3-hI2S (conjugate in which hI2S is bound to the C-terminus of mouse anti-mTfRscFv antibody 2 via the linker of SEQ ID NO: 4) (scFv, scFv-enzyme fusion, recombinant from CHO cells; also called mouse anti-mTfRscFv antibody 2-hI2S conjugate) EVQLVESGGGLVQPGNSLTLSCVASGFTFSNYGMHWIRQAPKKGLEWIAMIAYDSSKMNYADTVKGRFTISRDNSKNTLYLEMNSLRSEDTAMYYCAVPTAHYVVDVWGQGVSVTVSSGGGGSGGGGSGGGGSDIQMTQSPASLSASLEEIVTITCQASQDIGNWLAWYQQKPGKSPQLLIAGATSLADGVPSRFSGSRSGTQFSLKISRVQVEDIGIYYCLQAANTPWTFGGGTKLELKRGGGGSGGGGSGGGGSSETQANSTTDALNVLLIIVDDLRPSLGCYGDKLVRSPNIDQLASHSLLFQNAFAQQAVCAPSRVSFLTGRRPDTTRLYDFNSYWRVHAGNFSTIPQYFKENGYVTMSVGKVFHPGISSNHTDDSPYSWSFPPYHPSSEKYENTKTCRGPDGELHANLLCPVDVLDVPEGTLPDKQSTEQAIQLLEKMKTSASPFFLAVGYHKPHIPFRYPKEFQKLYPLENITLAPDPEVPDGLPPVAYNPWMDIRQREDVQALNISVPYGPIPVDFQRKIRQSYFASVSYLDTQVGRLLSALDDLQLANSTIIAFTSDHGWALGEHGEWAKYSNFDVATHVPLIFYVPGRTASLPEAGEKLFPYLDPFDSASQLMEPGRQSMDLVELVSLFPTLAGLAGLQVPPRCPVPSFHVELCREGKNLLKHFRFRDLEEDPYLPGNPRELIAYSQYPRPSDIPQWNSDKPSLKDIKIMGYSIRTIDYRYTVWVGFNPDEFLANFSDIHAGELYFVDSDPLQDHNMYNDSQGGDLFQLLMP
2.4 nM	–	mscFv-GS3-hI2S (conjugate in which human iduronate-2-sulfatase is bound to the C-terminus of a mouse anti-mouse transferrin receptor single chain antibody via … (scFv, scFv-enzyme fusion, expressed as a recombinant protein in CHO cells and collected from the culture supernatant; also called mouse anti-mTfRscFv antibody-hI2S conjugate) EVQLVESGGGLVQPGNSLTLSCVASGFTFSNYGMHWIRQAPKKGLEWIAMIYYDSSKMNYADTVKGRFTISRDNSKNTLYLEMNSLRSEDTAMYYCAVPTSHYVVDVWGQGVSVTVSSGGGGSGGGGSGGGGSDIQMTQSPASLSASLEEIVTITCQASQDIGNWLAWYQQKPGKSPQLLIYGATSLADGVPSRFSGSRSGTQFSLKISRVQVEDIGIYYCLQAYNTPWTFGGGTKLELKRGGGGSGGGGSGGGGSSETQANSTTDALNVLLIIVDDLRPSLGCYGDKLVRSPNIDQLASHSLLFQNAFAQQAVCAPSRVSFLTGRRPDTTRLYDFNSYWRVHAGNFSTIPQYFKENGYVTMSVGKVFHPGISSNHTDDSPYSWSFPPYHPSSEKYENTKTCRGPDGELHANLLCPVDVLDVPEGTLPDKQSTEQAIQLLEKMKTSASPFFLAVGYHKPHIPFRYPKEFQKLYPLENITLAPDPEVPDGLPPVAYNPWMDIRQREDVQALNISVPYGPIPVDFQRKIRQSYFASVSYLDTQVGRLLSALDDLQLANSTIIAFTSDHGWALGEHGEWAKYSNFDVATHVPLIFYVPGRTASLPEAGEKLFPYLDPFDSASQLMEPGRQSMDLVELVSLFPTLAGLAGLQVPPRCPVPSFHVELCREGKNLLKHFRFRDLEEDPYLPGNPRELIAYSQYPRPSDIPQWNSDKPSLKDIKIMGYSIRTIDYRYTVWVGFNPDEFLANFSDIHAGELYFVDSDPLQDHNMYNDSQGGDLFQLLMP
